Assay results from patent publication US20020082409A1.
Ends that are not written are not given here.

Tests used:
Assay in all cases: cell-based or functional assay
[1] = molecular target: recombinant CRH R2 beta expressed in 293T cells (UniProt Q13324)
[2] = molecular target: recombinant CRH R2-alpha expressed in 293T cells (UniProt Q13324)
[3] = molecular target: recombinant CRH R2 expressed in 293T cells (isoform not stated, Fig. 3f), Q13324
recombinant CRH R2 expressed in 293T cells (isoform not stated, Fig. 3f), Q13324, sequence (Q13324 20-411): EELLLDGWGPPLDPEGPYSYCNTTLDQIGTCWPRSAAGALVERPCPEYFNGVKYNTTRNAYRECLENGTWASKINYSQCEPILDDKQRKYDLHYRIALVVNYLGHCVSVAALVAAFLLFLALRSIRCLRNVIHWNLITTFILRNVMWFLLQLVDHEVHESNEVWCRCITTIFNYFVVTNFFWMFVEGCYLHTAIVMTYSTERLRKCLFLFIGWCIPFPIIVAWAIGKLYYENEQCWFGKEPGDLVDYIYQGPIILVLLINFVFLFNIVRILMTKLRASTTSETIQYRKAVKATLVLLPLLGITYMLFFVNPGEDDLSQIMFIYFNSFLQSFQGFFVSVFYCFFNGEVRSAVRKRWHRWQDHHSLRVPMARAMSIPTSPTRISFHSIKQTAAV

potency in cAMP production, compared to stresscopin 2 and the pufferfish peptide [1] | potency in cAMP production, compared to stresscopin 2 and the pufferfish peptide [2] | reduction in ability to stimulate cAMP production, against amidated stresscopin 1 [3] | Molecule
> 10 fold | > 10 fold | – | stresscopin 1 (full-length 43-amino-acid mature peptide, synthetic, amidated)
– | – | > 50 fold | HPGSRIVLSLDVILGLLQILLEQARARAAREQATTNARILARV-OH [SCP1-NA, full-length stresscopin 1 devoid of amidation at the C-terminus]
